Experiment: soluble on expression in E. coli; label from the status in PepcDB or PDB records

Sequence	soluble on expression in E. coli
MSLNSPIQAVIFDWAGTIVDFGSFAPTSIFVEAFKQGFDFEISLAEAREPMGLGKWQHIEAVGKLPTVAQRWQKQFGRPMQASDIDAIYAAFMPLQIAKVADHAAPIPHSLEVVEQIRSRGIKIGSCSGYPRQVMDVLIAAAADYGYRPDYVVATDDLAQGGRPAPFMALKNVIELGVTDVRACVKVDDALPGIEEGHNAGMWTVGLLLSGNEAGLTLEEYQHADDQTLQAARERAQAKLQQAKPHYLIDTVADLPAVLAQIEQRLLAGEREGHHHHHH	soluble
MSLNSQGYAVVDFETTGLSPAKGDRAIEIGLVHVAPDGTLEDEHETLIHVDRSVGASWVHHITARELLHAPDFEGIAHELRDLLAGRVFVAHNVSFDSRFLLAEYSRMGASIPVDQSTMLCTMKLSRSLIGRGKLADCCEYFGIANEDAHSALSDAHATAILLGRLLEADPKWPGFQRRLDAAGAAAEQWPTEGHHHHHH	not soluble
MSLNTPLAERLRPKKLEDYLSQHHLVGENGSLQQALKAGIIPSLILWGPPGIGKTTLATIIAEESKRPFYTLSAINSGVKDIREVIDKAKQSGGLFTQKNPILFIDEIHRFSKSQQDSLLGAVERGWVTLVGATTENPSFEVIPALLSRCQVYILKPFEKKDLILLLNRAINTDEILKKKNITLLETEALLRLSGGDARKLLNIFELIVTTENDKDVVVTNDMVLSKVQQNIVRYDKTGEQHYDIISAFIKSIRGSDPNAAVYWLARMIEGGEDVKFIARRLIIAAAEDIGNANPTALVIANNCFQAVTTIGYPEARIILSQCVTYLASSPKSNAAYMAIGKAQQLVKQTGDLSVPLPLRNAPTKLMKEIGYGNDYKYSHDYPGNFVQQEFLPKEISGTTLYEPTDNTREKAIKENLKAKWGSKYNYEGHHHHHH	soluble
MSLNTYLNEISKFVDENREEIVSLWKEIVNMESYTHCKESVNKLAERLKLEFEKEGLDCELVDVGDNGSTLIGTLGSNIDKKPIIFSGHMDTVFETGTFGENPFKIIEGKAYGPGVLDMKGGIIISLYVIKALNKIGYKERPIKIVFSGDEEIGHKDSTGADVILREAKGGLCAFNMETGLVDNSLCVGRKGRIGCNIHVKGVETHAGNDFEGGRNAIEEMANKILRIQKLTNLDVGTTVSVSVIKGGRVENSIPEDCSIKVDLRFEKVEEMENVKEQVREICKETYIEGTSTEVNFISEMMPFETTEDVMRFHTFVNEVSKENGFGELNAKRLGGSSDASYLTIANVPTICSFGVRGEWNHTSREYAVVDSMFERVKLISTVILNLDKFEEGHHHHHH	soluble
MSLNVDPNITKYMIKAKIVTDGVVEKPDVVGAIFGQTEGLLGDELDLRDLQKSGKIGRIEVEIDTKKGRTEGYVLIPSGLDQVESSILAAALETIDRIGPCKAKVEIESIEDVRINKRDRVIKRAEELYRKMGENGKSLSESIVQTVREEVEKKEIISYGEEHLPAGPAIADSDSIIVVEGRNDVLNLLRYGIKNTIAVQGTSVPKTVKELSKSRTVTLFVDGDHGGDLIIKEMLQVADVDFIARAPPGTEVEELTYKQIIKALKYKTPVEQYLETHGMIEELKEWSSRNTKELEERQGNELKNERPEKINENEESEKNVELKEGSVQKLETVPEFDPSSPESIKFKLKQLYESRELELFDGQSSVGKFPVSDAIEKIESMHGDLLITGGIISQRLLDIAYNIGVKAIYGFKIGNITKKPDDIKVVAWDHIEGHHHHHH	soluble
MSLNYIEDIKNYIPFNEQEERDKELFLRCLNDFHDILTRDNTIAHLTSSAFAVNKERNKFLMIHHNIYNSWAWTGGHSDNEKDQLKVAIKELKEETGVKNPTPLLDKAFALDVLTVNGHIKRGKYVSSHLHLNLTYLIECSEDETLMLKEDENSGVMWIPFNEISKYCSEPHMIPIYEKLINKLKTQSKEGHHHHHH	soluble
MSLPFTTILRMSRSRLVKQKGNKKRMTTVVSNAREIAAIDLGSNSFHMVVAKVVDQDLQLISRHKQRVRLAAGLDEQKNLDEESIQRGLECLAMFAERLQGFEPRNVRIAATHTLRQARNANLFIQRALDVLPFPIEIIPGSEEARLIYLGVAHTQPQADSMLVVDIGGGSTEMIIGKGFEAELLNSKQMGCVNFTERYFANGKLSRKNFAQAIVASEQKLESIASKYRKKGWQMAFGSSGTIKAIHEVLIGQGHEDGLITFERLSKLIEKLCEWDSIDDLQLPGLTDDRKPVFAAGVAILSAIFHGLNIKEMHFSDGALREGLLYEMEDRFKYSDIRLRTTENLAAKHLVDLEHAAKVKGHAREFLAQVANELGLPEGSELCDLLEWGALLHEVGLSINLQGFHRHSAYILRHNNMAGFNSEQQLVLSNLARFQRKSLKLNELDDFSLFKKKHIIGLIRVLRLAIVVNGQRNDDPLPPLTLSAKDDEWRLECEQPDWLENNKLLHADLQTEQEYWREVGWQLLFEGHHHHHH	not soluble

Reference: the DeepSol protein solubility set
